# Data from PMC5921532, “Identification of Iridoid Glucoside Transporters in Catharanthus roseus” (Plant and Cell Physiology, 2017).
# T1: AtNAT4 (Arabidopsis thaliana, UniProt P93039)
# T1 construct: gene NAT4; full-length cDNA from transporter library, cRNA expressed in Xenopus laevis oocytes
# T1 sequence (P93039 1-526): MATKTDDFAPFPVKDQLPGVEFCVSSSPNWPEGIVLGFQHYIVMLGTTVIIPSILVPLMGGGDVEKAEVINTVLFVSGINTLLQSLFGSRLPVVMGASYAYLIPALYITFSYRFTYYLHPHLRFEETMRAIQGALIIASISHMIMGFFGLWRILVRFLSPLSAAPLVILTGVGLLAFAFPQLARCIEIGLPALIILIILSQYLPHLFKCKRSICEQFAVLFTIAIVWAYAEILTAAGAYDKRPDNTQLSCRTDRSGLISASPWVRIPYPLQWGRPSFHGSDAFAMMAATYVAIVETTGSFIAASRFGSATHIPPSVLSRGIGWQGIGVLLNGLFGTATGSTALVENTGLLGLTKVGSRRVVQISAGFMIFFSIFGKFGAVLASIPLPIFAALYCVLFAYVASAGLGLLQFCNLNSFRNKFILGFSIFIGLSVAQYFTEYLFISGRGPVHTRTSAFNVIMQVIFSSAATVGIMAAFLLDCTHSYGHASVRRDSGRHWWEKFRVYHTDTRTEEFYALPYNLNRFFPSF
# T2: AtNPF2.9 (Arabidopsis thaliana, UniProt Q9M9V7)
# T2 construct: gene NPF2.9; full-length cDNA from transporter library, cRNA expressed in Xenopus laevis oocytes
# T2 sequence (Q9M9V7 1-587): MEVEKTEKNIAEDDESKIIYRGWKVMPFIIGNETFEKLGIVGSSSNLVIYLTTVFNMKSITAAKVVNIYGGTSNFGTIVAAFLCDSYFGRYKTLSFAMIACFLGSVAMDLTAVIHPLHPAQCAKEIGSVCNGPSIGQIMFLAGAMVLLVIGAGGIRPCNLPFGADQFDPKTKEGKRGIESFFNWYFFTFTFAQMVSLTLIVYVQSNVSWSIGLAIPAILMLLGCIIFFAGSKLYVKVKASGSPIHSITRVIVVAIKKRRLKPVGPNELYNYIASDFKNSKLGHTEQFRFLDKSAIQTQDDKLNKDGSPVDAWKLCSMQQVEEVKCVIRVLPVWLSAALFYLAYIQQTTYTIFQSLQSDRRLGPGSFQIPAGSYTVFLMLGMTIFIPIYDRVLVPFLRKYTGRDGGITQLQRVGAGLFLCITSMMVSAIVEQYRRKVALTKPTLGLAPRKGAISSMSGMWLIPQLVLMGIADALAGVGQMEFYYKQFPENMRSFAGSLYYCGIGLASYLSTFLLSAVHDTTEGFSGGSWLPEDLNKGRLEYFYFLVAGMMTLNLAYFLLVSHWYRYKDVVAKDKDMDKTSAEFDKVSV
# B1: CrNPF2.4 (Catharanthus roseus) (protein)
# chain: MAEKSSSIDATENGFVKIKEPNHRGVKAMPFIVGNETFEKLGTLGTSANLLIYLTTVFHMKSITATNLINIFNGTCNFGTLLGAFFSDTYFGRYKTLGFASVSSTLGMLILTLTAAISKLHPPSCEKNSKACSGPTSGQFAFLFTAFLFLIIGASGIRPCNLAFGADQFNPNTESGRKGTNSFFNWYYFTFTFAMMVSLTVIVYVQSSISWALGLAIPTFLMLLSCVFFFVGSRIYVKVLPEGSPLTSMMQVIVAAFRKRKLNLPDHQPWDSLFNYISPSSINSKLSYTDQFRWLNKAAIKTSKDHLYAEGSTANPWRLCSMQQVEEVKCVIRSIPIWTSGVLYYVVLNQMSTYLVFQALQSDRRIGKTNFKIPAASYTVFSMLSLSIWIPIYDRIIVPFLRKITKTEQGITILQKMGFGLVIAVITMVVSAIIEDKRRVIALTRPIVGIEERKGGISSLSGFWLVPQLALAGISEAFTVIAQVEFFYKQFPENMRSFGGSFLFCGFAISSYLSSFLISIVHKVTRNSSGGNWLDEDLNKARLDYFYYLVAGLEVLNFGYFLVCAHWYRYKETQSGNEIAMEQILDEPKKNLDVV
# notes: full-length, Gateway cloned from C. roseus cDNA into pOO2-GW, cRNA expressed in Xenopus laevis oocytes
# B2: CrNPF2.5 (Catharanthus roseus) (protein)
# chain: MEENQEHKAIKNHEPNYRGIKAMPFVIGNETFEKLGTIGTSTNLLIYLTSVFHMKTITATNLVNIFNGTCNFGTLVGAFLCDTYFGRYNTLGFASVSSFLGMLVLTLTAAIKNLHPEACGNEEGSKCISPSGGQMAFLLSGFAFLIVGASGIRPCNLAFGADQFNPNTDSGRRGINSFFNWYYFTYTFAMMVSLTIIVYVQSNISWSIGLAIPTFLMFLSCATFFVGTRIYVRVLPEGSPLISVARVIVSAFKKRKLELPDEPKLSLFNHSASSTSSINSKISYTDQFRFLNKAAIITSEDEFNSDGSVKNPWRICTIQQVEEVKCLLKLIPVWISCIIYYISVVQQQNYVVFQALQSDRRLFGTSKFKIPAASYIVIAMLALTIWIPIFDRIIVPCLQKITGKEGGITILQRMGIGMVLSVLTMITSALVESKRRKFALNRPTLGFEPRKGAISSMSGVWLIPQLALSGLSEAFTIIGENELFYKECPENMRSIAMALVFVGFAGSSYLSSLLSSIVQKTTGGNESWLAEDLNRGRLDYFYYLIGALETLNLIYFLVCSKWYKYKQVEKIPQVAMEKLNNVEEKSLV
# notes: as for B1
# B3: CrNPF2.6 (Catharanthus roseus) (protein)
# chain: MEKNEKLVPNGTKEDGKVAAKNEPNYRGIKAMPFVLGNETCEKLGTIGTSSNLSVYLSTVFHMNTMSANNVINIFNGTCYLGSLVGAFLCDTYFGRYKTLGLGSVASFLGMLMLTLTAAISTLHPTNCDNSGDCKGPSAGQMAFLVGGFVLMVIGASGIRPCNLAFGADQFNPNTESGRRGINSFFNWYYFTYTFAVMVSATIIVYVQSDISWSIGFAIPTSLMFLSCALFFAGTWLYVKVLPQGSPMTSLVQVIVVSVKKRRLKLPGEPSLLFNHIPSNAINSKLPRTNNFRFLDKAAILTPEDKVNPDGSAANKWKLCSIQQVEEVKCVLRVLPIWIAGVIFQISVTQQSNYVPFQAFQSDRHLIKGNKFQIPAGTYNVFSMLALTIWLPIYDRIIIPLLRRWTKKEDGITLLQRMGVGIVLSILSMLVSALVESRRRNLALTRPTLGIQEGQGSISSMSALWFVPQLALMGLAEGFTFIGENELFYKEFPENMRSIAASLVLCGVAVASYLTSFIAEIVHKTTRSGTRDWLAQDLNKARLDYFFYMVAVLEALNLVYFLVCAKWYRYKGTGDLGKLEVAMEKLETEKHLV
# notes: as for B1
# What was measured:
# AtNAT4 = molecular target: T1, AtNAT4; test: uptake screen in Xenopus oocytes, LC-MS; assay type: cell-based; details: pH 5.0; Kulori buffer; 0.5-1 mM loganin, 1 h
# AtNPF2.9 = molecular target: T2, AtNPF2.9; test: uptake screen in Xenopus oocytes, LC-MS; assay type: cell-based; details: pH 5.0; Kulori buffer; 0.5-1 mM loganin, 1 h
# [1] = substrate: COC(=O)C1=CO[C@@H](O[C@@H]2O[C@H](CO)[C@@H](O)[C@H](O)[C@H]2O)[C@@H]2[C@@H](C)[C@@H](O)C[C@H]12; test: uptake into Xenopus oocytes, LC-MS, Michaelis-Menten fit; assay type: cell-based, Catharanthus roseus; details: pH 5.0, Kulori buffer, 12.5 µM to 2 mM loganin
Molecule,"uptake screen in Xenopus oocytes, LC-MS (AtNAT4)","uptake screen in Xenopus oocytes, LC-MS (AtNPF2.9)",Km [1]
"COC(=O)C1=CO[C@@H](O[C@@H]2O[C@H](CO)[C@@H](O)[C@H](O)[C@H]2O)[C@@H]2[C@@H](C)[C@@H](O)C[C@H]12 [loganin, (1S,4aS,6S,7R,7aS)-6-hydroxy-7-methyl-1-[(2S,3R,4S,5S,6R)-3,4,5-trihydroxy-6-(hydroxymethyl)oxan-2-yl]oxy-1,4a,5,6,7,7a-hexahydrocyclopenta[c]pyran-4-carboxylate]",Two transporters were identified,initially screened cDNA library,
B1,,,237 ± 35 µM
B2,,,387 ± 57 µM
B3,,,60 ± 5 µM
